The text below walks through data of PMC10593786 (Nature Communications, 2023).

A word on the stoichiometry N: it is the number of molecules, sites or subunits per partner or assembly.

The labels stand for the following.
B2: Myo6 ^YFPCBD (WT) (domain or fragment, mouse, UniProt Q64331 1032-1262, looked up)
chain: MALRRGPAVQATKAAAGTKKHDLSKWKYAELRDTINTSCDIELLAACREEFHRRLKVYHAWKSKNKKRNTETEQRAPKSVTDYDFAPFLNNSPQQNPAAQLPARQQEIDMKRQQRFFRIPFIRPADQYKDPQNKKKGWWYAHFDGPWIARQMELHPDKPPILLVAGKDDMEMCELNLEETGLTRKRGAEILPRQFEEIWERCGGIQYLQSAIESRQARPTYATAMLQNLLK
notes: The results call it CBD^1035-end, the methods give M1032; also called Myo6 CBD; CBD^1035-end; source: E. coli BL21 (DE3), purified (HisTrap IMAC, SEC); not shown: YFP, N-terminal, kept
B6: ^HisTOM1 (His-TOM1 207-492) (domain or fragment)
chain: DTPIAPTPEQIGKLRSELEMVSGNVRVMSEMLTELVPTQAEPADLELLQELNRTCRAMQQRVLELIPQIANEQLTEELLIVNDNLNNVFLRHERFERFRTGQTTKAPSEAEPAADLIDMGPDPAATGNLSSQLAGMNLGSSSVRAGLQSLEASGRLEDEFDMFALTRGSSLADQRKEVKYEAPQATDGLAGALDARQQSTGAIPVTQACLMEDIEQWLSTDVGNDAEEPKGVTSEEFDKFLEERAKAADRLPNLSSPSAEGPPGPPSGPAPRKKTQEKDDDMLFAL
notes: human TOM1 residues 207-end (207-492); The ATPase assays used His-YFP-TOM1 436-461, the MNT-1 assays ^mCherryMST-TOM1 (299-end); also called TOM1 207-end; source: E. coli BL21 (DE3), purified (IMAC, SEC); not shown: His6, N-terminal, kept

For data set [1], the target named is B2. Nature of the data set: MST; ^YFPCBD kept at 100 nM, Myo6 partner titrated (16 two-fold dilutions), 25 °C, 20 mM Bis-Tris pH 6.5, 100 mM KCl, 1 mM DTT, 0.05% Tween-20. The following applies: both partners purified.
Data set [2] concerns the target B6. The data set is described as above. To be noted: both partners purified.
A further data set addresses T1, Myo6 MD^Ins2 (2-816) ( | human, UniProt Q29122 2-816; P0DP23 1-149).
T1 construct: also called Tail-less construct
The data set is described as follows: MST; ^YFPCBD kept at 100 nM, Head sample titrated (16 two-fold dilutions), 25 °C, 20 mM Hepes pH 7.5, 50 mM NaCl, 2.5 mM MgCl2, 1 mM TCEP, 0.05% Tween-20, with 2 mM MgADP and 2 mM Na3VO4 (motor state ADP.VO4). To be noted: both partners purified.

For a further data set, the target named is T2, Myo6 MD (1-789) (UniProt Q29122 1-789).
T2 construct: myosin VI (Myo6) residues 1-789: Motor domain; also called Motor domain; source: Sf9/baculovirus, co-infected with human CaM virus, purified (anti-Flag resin)
The description is as above. To be noted: both partners purified.

The target of data set [3] is T3, Myo6 MD^Ins2/IQ/3HB (1-917) ( | human, UniProt Q29122 1-917; P0DP23 1-149).
T3 construct: also called Myo6-917; Myo6 Head fragment
The data set is described as above. The following applies: both partners purified.

For data set [4], the target named is T3, Myo6 MD^Ins2/IQ/3HB (1-917). Nature of the data set: MST; ^YFPCBD kept at 100 nM, Head sample titrated (16 two-fold dilutions), 25 °C, 20 mM Hepes pH 7.5, 50 mM NaCl, 2.5 mM MgCl2, 1 mM TCEP, 0.05% Tween-20, nucleotide-free (motor state NF). To be noted: both partners purified.
Data set [5] addresses B2. Nature of the data set: MST; ^YFPCBD kept at 100 nM, Ins2/IQ/3HB titrated (16 two-fold dilutions), 25 °C, 20 mM Hepes pH 7.5, 50 mM NaCl, 2.5 mM MgCl2, 1 mM TCEP, 0.05% Tween-20; motor state '-' (no Motor domain). The following applies: both partners purified.
Data set [6] deals with the molecule itself. Nature of the data set: SEC-MALS; fragments of the 3HB/SAH junction on Superdex 200 10/300 Increase, 0.5 mL/min; titration; apparent KD, dimer to monomers. A general note: SEC sorts molecules by how far they enter the pores of the column.
Data set [7] deals with the molecule itself. The data set is described as follows: SEC-MALS; injection of 50 µL at 10 mg/mL in 10 mM Tris-HCl pH 7.5, 50 mM NaCl, 5 mM NaN3, 0.5 mM TCEP; peak concentration by the in-line refractometer.
The target in the next data set is T4, FLMyo6 SI (SAHmimic) (human, UniProt Q9UM54-2 1-1262; P0DP23 1-149, Glu922 to Glu935 (EAERLRRIQEEMEK) replaced with EERKRREEEERKKREEE).
T4 construct: also called FLMyo6 (SAHmimic)
The data set is described as follows: pull-down; anti-His pull-down on Ni2+ beads, His-partner and FLMyo6 SI (SAHmimic) 1/1 (10 µM), 1 µM extra calmodulin, 4 °C; which of the three buffers is not given. The following applies: both partners purified.

The target of data set [8] is T5, full-length wild-type Myo6, small insert isoform (FLMyo6 SI (WT)) (human, UniProt Q9UM54-2 1-1262; P0DP23 1-149).
T5 construct: also called FLMyo6 (WT)
The data set is described as follows: pull-down. The following applies: both partners purified.

T2 sequence (Q29122 1-789): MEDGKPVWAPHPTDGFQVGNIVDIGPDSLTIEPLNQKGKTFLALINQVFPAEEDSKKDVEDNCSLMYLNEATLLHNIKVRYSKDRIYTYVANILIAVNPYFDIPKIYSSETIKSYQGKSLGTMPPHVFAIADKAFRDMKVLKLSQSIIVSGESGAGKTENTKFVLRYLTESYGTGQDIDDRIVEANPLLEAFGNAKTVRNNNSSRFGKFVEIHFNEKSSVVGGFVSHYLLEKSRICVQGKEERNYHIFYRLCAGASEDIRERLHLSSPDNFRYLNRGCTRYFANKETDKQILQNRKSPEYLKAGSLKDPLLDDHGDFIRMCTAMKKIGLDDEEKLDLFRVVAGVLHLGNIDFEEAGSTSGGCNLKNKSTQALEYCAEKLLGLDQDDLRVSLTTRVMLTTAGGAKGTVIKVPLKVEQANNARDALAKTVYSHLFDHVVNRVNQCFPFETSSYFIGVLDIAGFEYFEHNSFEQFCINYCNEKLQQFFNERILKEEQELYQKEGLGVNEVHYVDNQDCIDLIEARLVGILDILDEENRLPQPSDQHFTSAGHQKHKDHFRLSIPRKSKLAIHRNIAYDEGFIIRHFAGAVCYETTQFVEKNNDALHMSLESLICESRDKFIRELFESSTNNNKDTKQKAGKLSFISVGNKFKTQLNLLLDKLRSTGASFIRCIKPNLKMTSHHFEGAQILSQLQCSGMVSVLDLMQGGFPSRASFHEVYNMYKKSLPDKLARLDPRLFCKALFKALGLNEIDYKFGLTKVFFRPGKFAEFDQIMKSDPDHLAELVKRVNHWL

B1: ^HisGIPC1 (His-rTEV-GIPC1 255-end) (domain or fragment, mouse, UniProt Q9Z0G0 255-333, looked up)
chain: DLPSAFEEKAIEKVDDLLESYMGIRDTELAATMVELGKDKRNPDELAEALDERLGDFAFPDEFVFDVWGAIGDAKVGRY
notes: mouse GIPC1 truncated in the N-terminus at aa D255 to keep only the GH2 domain; The ATPase assays used His-mNeonGreen-GIPC1 238-end, the MNT-1 assays ^mCherryMST-GIPC1 (239-end); also called GH2 domain; source: E. coli BL21 (DE3), purified (IMAC, SEC); not shown: His6, N-terminal, kept
For B1, in the data set with Myo6 ^YFPCBD (WT) [1], the binding result is “binds”. Take B2: the binding result in [2] is on record as “binds”. Also, the Kd with Myo6 MD^Ins2 (2-816) is 343 nM; with Myo6 MD (1-789), 3920 nM; in data set [3] it was 144 nM; in data set [4], 726 nM.

B3: Myo6 Ins2/IQ/3HB (aa 783-917) (domain or fragment, human, UniProt Q9UM54-5 783-917, looked up)
chain: RVNHWLTCSRWKKVQWCSLSVIKLKNKIKYRAEACIKMQKTIRMWLCKRRHKPRIDGLVKVGTLKKRLDKFNEVVSVLKDGKPEMNKQIKNLEISIDTLMAKIKSTMMTQEQIQKEYDALVKSSEELLSALQKKK
notes: human myosin VI, aa 783-917 (insert-2, IQ, 3-helix bundle), from the human FLMyo6 no-insert construct; source: E. coli BL21 (DE3), purified (IMAC, SEC); not shown: His6, N-terminal, cleaved
In the data set with Myo6 ^YFPCBD (WT) [5], B3 displayed a Kd of 250 nM.

B4: Myo6 875-940 (N-terminal 6xHis-tag, pET14) (domain or fragment, mouse, UniProt Q64331 875-940, looked up)
chain: EISIDALMAKIKSTMMTREQIQKEYDALVKSSEDLLSALQKKKQQEEEAERLRRIQEEMEKERKRR
notes: mouse myosin VI aa 875-940: 2nd and 3rd helix of the 3HB and first part of the SAH; also called aa 875-940; 875-940 peptide; source: E. coli BL21 (DE3), purified (IMAC, SEC)
For B4, in data set [6], the Kd was approximately 19000 nM.

B5: Myo6 875-940 (his-rTEV-875-940, pProEX-HTb) (domain or fragment, mouse, UniProt Q64331 875-940, looked up)
chain: EISIDALMAKIKSTMMTREQIQKEYDALVKSSEDLLSALQKKKQQEEEAERLRRIQEEMEKERKRR
notes: mouse myosin VI aa 875-940; Made for crystallization; also called Myo6 875-940 WT; 875-940 peptide; source: E. coli BL21 (DE3), purified (IMAC, rTEV, SEC); not shown: His6, N-terminal, cleaved
As to B5, the “stoichiometry N” value in data set [7] was determined as 2. As to B6, the binding result (with FLMyo6 SI (SAHmimic); in data set [8]) was “binds” throughout.
